# US20200263147A1
# What was measured:
# [1] = target: UL37N, the N-terminal half (residues 1 to 496) of pseudorabies virus (PRV) UL37 (pseudorabies virus (PRV)); assay: crystal structure, interface analysis calculated without the calcium ions
# [2] = target: UL37N, the N-terminal half (residues 1 to 496) of pseudorabies virus (PRV) UL37 (pseudorabies virus (PRV)); assay: crystal structure, interface analysis (PISA), calcium present
substance,measurement,setting,value
"UL37N, the N-terminal half (residues 1 to 496) of pseudorabies virus (PRV) UL37",buried surface area,[1],1500 Å2
same,buried surface area,[2],1730 Å2
